Reference: PMC4956541

Substrate: O=S(=O)(O)O
Test: cells, lysate or membranes
Assay type: cell-based, Homo sapiens
Conditions: ND96(Cl-) bath, pH 7.4, extracellular sulfate, labelled compound

B1: human SLC26A1 (Homo sapiens) (protein)
chain: MDESPEPLQQGRGPVPVRRQRPAPRGLREMLKARLWCSCSCSVLCVRALVQDLLPATRWLRQYRPREYLAGDVMSGLVIGIILVPQAIAYSLLAGLQPIYSLYTSFFANLIYFLMGTSRHVSVGIFSLLCLMVGQVVDRELQLAGFDPSQDGLQPGANSSTLNGSAAMLDCGRDCYAIRVATALTLMTGLYQVLMGVLRLGFVSAYLSQPLLDGFAMGASVTILTSQLKHLLGVRIPRHQGPGMVVLTWLSLLRGAGQANVCDVVTSTVCLAVLLAAKELSDRYRHRLRVPLPTELLVIVVATLVSHFGQLHKRFGSSVAGDIPTGFMPPQVPEPRLMQRVALDAVALALVAAAFSISLAEMFARSHGYSVRANQELLAVGCCNVLPAFLHCFATSAALAKSLVKTATGCRTQLSSVVSATVVLLVLLALAPLFHDLQRSVLACVIVVSLRGALRKVWDLPRLWRMSPADALVWAGTAATCMLVSTEAGLLAGVILSLLSLAGRTQRPRTALLARIGDTAFYEDATEFEGLVPEPGVRVFRFGGPLYYANKDFFLQSLYSLTGLDAGCMAARRKEGGSETGVGEGGPAQGEDLGPVSTRAALVPAAAGFHTVVIDCAPLLFLDAAGVSTLQDLRRDYGALGISLLLACCSPPVRDILSRGGFLGEGPGDTAEEEQLFLSVHDAVQTARARHRELEATDAHL
K0.5: 0.26 ± 0.04 mM
